Experimental data: patent US20090252683A1 (Amgen, published 2009)

Key:
[1] = target: cynomolgus CD3 antigen on cynomolgus PBMC / macaque T cells (Macaca fascicularis (cynomolgus), UniProt Q95LI5 22-117; Q95LI7 23-110; Q95LI8 22-103); assay: cell-based or functional assay
[2] = target: T1, human EpCAM antigen on Kato III cells or human EpCAM transfected CHO cells (human, UniProt P16422 24-265); assay: cell-based or functional assay
T1 sequence: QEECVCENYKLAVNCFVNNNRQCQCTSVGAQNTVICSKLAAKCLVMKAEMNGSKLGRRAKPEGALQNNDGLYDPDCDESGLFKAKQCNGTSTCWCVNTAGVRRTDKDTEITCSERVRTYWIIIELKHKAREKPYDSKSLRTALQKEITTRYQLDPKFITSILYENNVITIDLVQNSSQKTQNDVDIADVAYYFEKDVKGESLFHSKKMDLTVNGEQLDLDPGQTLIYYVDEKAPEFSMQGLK

[3] = target: T2, cynomolgus EpCAM antigen on transfected CHO cells (cynomolgus, UniProt Q1WER1 24-265 (rhesus entry)); assay: FACS on cynomolgus EpCAM transfected CHO cells, anti-His detection
T2 construct: 48 holds the extracellular portion
T2 sequence: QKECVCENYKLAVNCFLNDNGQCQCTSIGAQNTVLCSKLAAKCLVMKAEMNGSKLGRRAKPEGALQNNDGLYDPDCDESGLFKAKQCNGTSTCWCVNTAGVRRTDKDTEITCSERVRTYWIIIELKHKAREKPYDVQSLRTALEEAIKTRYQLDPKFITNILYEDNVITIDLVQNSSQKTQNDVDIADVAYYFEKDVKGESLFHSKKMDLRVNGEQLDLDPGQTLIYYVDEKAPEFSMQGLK
From the text: FIG. 8: FACS assay for binding of 2G8LH×SEQ ID NO. 12, 2G8LH×SEQ ID NO. 10, 2G8LH×SEQ ID NO. 16, 2G8LH×SEQ ID NO. 14, 2G8HL×SEQ ID NO. 12, 2G8HL×SEQ ID NO. 10, 2G8HL×SEQ ID NO. 16 and 2G8HL×SEQ ID NO. 14 on Kato III (FIG. 8A) cells or cynomolgus EpCAM transfected CHO cells (FIG. 8B) and HPB-ALL cells. Antigen binding was clearly detectable for the anti EpCAM specificities as well as for the anti CD3 specificities. As a negative control for binding to cynomolgus EpCAM, the 5-10LH×SEQ ID NO.
Binding of the bifunctional constructs from cell culture supernatants or binding of purified bifunctional constructs to the human EpCAM antigen on Kato III cells or cynomolgus EpCAM transfected CHO cells and to the CD3 antigen on HPB-ALL cells was tested using an FACS assay. For that purpose 2.5×10⁵ cells were incubated with 50 μl supernatant or with 5 μg/ml of the purified constructs in 50 μl PBS with 2% FCS. The binding of the constructs was detected with an anti-His antibody (Penta-His Antibody, BSA free, obtained from Qiagen GmbH, Hilden, FRG) at 2 μg/ml in 50 μl PBS with 2% FCS. […] The samples were measured on a FACSscan (BD biosciences, Heidelberg, FRG). Antigen binding was clearly detectable for the anti EpCAM specificities as well as for the anti CD3 specificities (see FIG. 8). As a negative control for binding to cynomolgus EpCAM, the 5-10LH×SEQ ID NO. […] The 5-10LH part only binds to human EpCAM.

Chain of cynomolgus CD3 antigen on cynomolgus PBMC / macaque T cells (Q95LI5 22-117, chain 1 of 3): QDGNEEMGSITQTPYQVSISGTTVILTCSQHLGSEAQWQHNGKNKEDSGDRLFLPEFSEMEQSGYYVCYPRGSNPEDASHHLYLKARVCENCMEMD
Chain of cynomolgus CD3 antigen on cynomolgus PBMC / macaque T cells (Q95LI7 23-110, chain 2 of 3): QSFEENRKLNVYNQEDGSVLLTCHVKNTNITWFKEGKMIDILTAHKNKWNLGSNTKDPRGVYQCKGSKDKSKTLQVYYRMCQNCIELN
Chain of cynomolgus CD3 antigen on cynomolgus PBMC / macaque T cells (Q95LI8 22-103, chain 3 of 3): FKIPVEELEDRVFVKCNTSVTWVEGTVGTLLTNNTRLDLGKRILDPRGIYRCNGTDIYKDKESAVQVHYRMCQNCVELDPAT

B1: 5-10LH×SEQ ID NO. 10 bispecific single chain antibody (bispecific antibody)
chain: ELVMTQSPSSLTVTAGEKVTMSCKSSQSLLNSGNQKNYLTWYQQKPGQPPKLLIYWASTRESGVPDRFTGSGSGTDFTLTISSVQAEDLAVYYCQNDYSYPLTFGAGTKLEIKGGGGSGGGGSGGGGSEVQLLEQSGAELVRPGTSVKISCKASGYAFTNYWLGWVKQRPGHGLEWIGDIFPGSGNIHYNEKFKGKATLTADKSSSTAYMQLSSLTFEDSAVYFCARLRNWDEPMDYWGQGTTVTVSSGGGGSEVKLLESGGGLVQPKGSLKLSCAASGFTFNTYAMNWVRQAPGKGLEWVARIRSKYNNYATYYADSVKDRFTISRDDSQSILYLQMNNLKTEDTAMYYCVRHGNFGNSYVSWFAYWGQGTLVTVSAGGGGSGGGGSGGGGSQAVVTQESALTTSPGETVTLTCRSSTGAVTTSNYANWVQEKPDHLFTGLIGGTNKRAPGVPARFSGSLIGDKAALTITGAQTEDEAIYFCALWYSNLWVFGGGTKLTVLHHHHHH
EC50 (half maximal killing), FACS-based cytotoxicity, Kato III target cells, cynomolgus PBMC effector cells [1]: 0.052 ng/mL
EC50 (half maximal killing), FACS-based cytotoxicity, Kato III target cells, human PBMC effector cells [2]: 0.0058 ng/mL
binding result [3]: no binding (tested: 50 µl supernatant or 5 µg/ml)
